Laboratory results from PMC8409790.

target: FcRn/β2 microglobulin (UniProt P55899); experiment: SPR

Row | Kd [µM] | Substance
1 | 5 | Guselkumab (antibody)
2 | 5 | Risankizumab (antibody)
3 | 5 | Tildrakizumab (antibody)
4 | 5 | Ustekinumab (antibody)
